From US20250027068A1
Where a chain is given by its changes, count along the chain named.

B1: VRT-53 (Fc fusion)
chain: VTSVWTKGVTPPTNFTYGEDVLHAPYVANQGWYDITKTFNGKDNLLCGAATAGNMLHWWFDQNKEQIENYLKKHPEKQKIIFNNQELFDLKAAIDTKDSQLDSKLFEYFKEKAFPYLSTKHLGVFPDHVIDMFINGYRLSLTNHGPTPVKRGSKDKRGGIFDAVFTRGVQSKLLTNRHDLKNKTLKEISDLIKQELTEGKALGISHTYANVRINHVINLWGADFDAEGNLEAIYVTDSDTNASIGMKKYFVGVNSNGKVAISAKEIEEDNIGAQVLGLFTLSTGQDIWNQTNDKTHTCPPCPAPEAAGAPSVFLFPPKPKDTLMISRTPEVTCVVVDVSHEDPEVKFNWYVDGVEVHNAKTKPREEQQNSTYRVVSVLTVLHQDWLNGKEYKCKVSNKALKAPIEKTISKAKGQPREPQVYTLPPSRDELTKNQVSLTCLVKGFYPSDIAVEWESNGQPENNYKTTPPVLDSDGSFFLYSKLTVDKSRWQQGNVFSCSVMHEALHNHYTQKSLSLSPG
B2: VRT-54 (Fc fusion)
chain: VTSVWTKGVTPPTDFIKGEDVFHAPYKAGQGWYDITKTFNGKDDLLCGAATAGNMLHWWFDQNKEYIEAYLKKHPEKQKIMFGDQELLDVRKAINTKGSQKNSELFNYFRDKAFPNLSARRLGVMPDLVLDMFINGYYLNVTKTQTTDVNRTYQEKDKRGGIFDAVFTRGDQSKLLTSRHDFKEKGLKEISDLIKQELTEGKALGLSHTYANVRINHVINLWGADFDSDGNLKAIYVTDSDSNASIGMKKYFVGVNSAGKVAISAKEIKEDNIGAQVLGLFTLSTGQDIWNQTNDKTHTCPPCPAPEAAGAPSVFLFPPKPKDTLMISRTPEVTCVVVDVSHEDPEVKFNWYVDGVEVHNAKTKPREEQQNSTYRVVSVLTVLHQDWLNGKEYKCKVSNKALKAPIEKTISKAKGQPREPQVYTLPPSRDELTKNQVSLTCLVKGFYPSDIAVEWESNGQPENNYKTTPPVLDSDGSFFLYSKLTVDKSRWQQGNVFSCSVMHEALHNHYTQKSLSLSPG
B3: VRT-55 (Fc fusion)
chain: B2 chain with F182L, E184N
B4: VRT-56 (Fc fusion)
chain: B2 chain with T13A, I16T, K17Q, K27V, G29N, F182L, E184N
B5: VRT-57 (Fc fusion)
chain: B2 chain with D44N, M81I, G83N, D84N, L88F, V90L, R91K, K92A, M125F, D171V
B6: VRT-58 (Fc fusion)
chain: VTSVWTKGVTPPTDFIKGEDVFHAPYKAGQGWYDITKTFNGKDNLLCGAATAGNMLHWWFDQNKEYIEAYLKKHPEKQKIIFNNQELFDLKAAINTKGSQKNSELFNYFRDKAFPNLSARRLGVFPDLVLDMFINGYYLNVTKTQTTDVNRTYQEKDKRGGIFDAVFTRGVQSKLLTSRHDLKNKGLKEISDLIKQELTEGKALGLSHTYANVRINHVINLWGADFDSDGNLKAIYVTDSDSNASIGMKKYFVGVNSAGKVAISAKEIKEDNIGAQVLGLFTLSTGQDIWNQTNDKTHTCPPCPAPEAAGAPSVFLFPPKPKDTLMISRTPEVTCVVVDVSHEDPEVKFNWYVDGVEVHNAKTKPREEQQNSTYRVVSVLTVLHQDWLNGKEYKCKVSNKALKAPIEKTISKAKGQPREPQVYTLPPSRDELTKNQVSLTCLVKGFYPSDIAVEWESNGQPENNYKTTPPVLDSDGSFFLYSKLTVDKSRWQQGNVFSCSVMHEALHNHYTQKSLSLSPG
B7: VRT-59 (Fc fusion)
chain: B6 chain with T13A, I16T, K17Q, K27V, G29N

These binders were tested against pooled human IgG (human) (assay: cell-based or functional assay).

B1 and B2 are the same in Enzyme Activity Endpoint Assay, Fab′2: 0 ng/µL for the first, 0 ng/µL for the second.

B3 and B4 are the same in Enzyme Activity Endpoint Assay, Fab′2: 0 ng/µL for the first, 0 ng/µL for the second.

B5 and B6 are the same in Enzyme Activity Endpoint Assay, Fab′2: 0 ng/µL for the first, 0 ng/µL for the second.

In the case of B7, the Enzyme Activity Endpoint Assay, Fab′2 is reported as 0 ng/µL.

First: B1
Second: B2
The Enzyme Activity Endpoint Assay, Fc of the first is higher: 209 ng/µL for the first, 129 ng/µL for the second.

Going from B3 to B4, the Enzyme Activity Endpoint Assay, Fc rises from 120 ng/µL to 200 ng/µL.

Compared with B5, B6 is higher in Enzyme Activity Endpoint Assay, Fc: 97 ng/µL for the first, 191 ng/µL for the second.

Work on B7 yielded an Enzyme Activity Endpoint Assay, Fc of 157 ng/µL.

Going from B1 to B2, the Enzyme Activity Endpoint Assay, IgG rises from 326 ng/µL to 672 ng/µL.

Going from B3 to B4, the Enzyme Activity Endpoint Assay, IgG rises from 734 ng/µL to 742 ng/µL.

Compared with B5, B6 is lower in Enzyme Activity Endpoint Assay, IgG: 903 ng/µL for the first, 527 ng/µL for the second.

For B7, the Enzyme Activity Endpoint Assay, IgG was 726 ng/µL.

Going from B1 to B2, the Enzyme Activity Endpoint Assay, scIgG falls from 339 ng/µL to 150 ng/µL.

Compared with B3, B4 is higher in Enzyme Activity Endpoint Assay, scIgG: 109 ng/µL for the first, 240 ng/µL for the second.

Going from B5 to B6, the Enzyme Activity Endpoint Assay, scIgG rises from 27 ng/µL to 236 ng/µL.

Binder B7 has an Enzyme Activity Endpoint Assay, scIgG of 107 ng/µL.
